Assay: yeast display, Sf9 membrane polyspecificity reagent, FACS + sequencing; frameworks hold sequencing errors
Procedure, shortened: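 In a synthetic yeast display library (Saccharomyces cerevisiae BJ5465), nanobody expression was induced with galactose for 36–48 hours. FACS gates were set low and high (top ~1%) using anti-HA fluorescence for expression and streptavidin fluorescence for binding of the Sf9 membrane reagent. Each polyreactivity label is drawn from the gate of origin.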

Sequence	polyreactivity (PSR sort gate)
QVQLVESGGGLVQAGGSLRLSCAASGITFHRYAMRWYRQAPGKERELVAAINGGGGSTYYADSVKGRFTISRDNAKNTVYLQMNSLKPEDTAVYYCAAEVQNGVHIYDYWGQGTQVTVSS	high polyreactivity
QVQLVESGGGLVQAGGSLRLSCAASGITFIINAMGWYRQAPGKERELVAAISWRGGNTHYADSVKGRFTISRDYAKNTVYLQLNSLKAEVTAVYYCAARVTSRRDPDQKHGYWGQGTQVTVSS	high polyreactivity
QVQLVESGGGLVQAGGSLRLSCAASGITFIQYAMGWYRQAPGKERELVAAISSGGRTYYADSVKGRFTISRDNAKNTVYLQMNSLKPEDTAVYYCARDIQHYGGDSWGQGTQVTVSS	low polyreactivity
QVQLVESGGGLVQAGGSLRLSCAASGITFIRNAMGWYRQAPGKERELVAAISYRGGSTYYADSVKGRFTISRDNAKNTVYLQMNSLKPEDTAVYYCAAARKLDATTYYKFDYWGQGTQVTVSS	high polyreactivity
QVQLVESGGGLVQAGGSLRLSCAASGITFIRNAMGWYRQAPGKERELVAAISYRGGSTYYADSVKGRFTISRDNAKNTVYLQMNSLKPEDTAVYYCAAKRYGYKMYYWGQGTQVTVSS	high polyreactivity
QVQLVESGGGLVQAGGSLRLSCAASGITFISYAMGWYRQAPGKEMELVAAISSSGGRTYYADSVKGRFTISRDNAKNTVYLQMNSLKPEDTAVYYCAADGYPEYPRYGYWGQGTQVTVSS	high polyreactivity
QVQLVESGGGLVQAGGSLRLSCAASGITFIVNTMGWYRQAPGKEREFVATISANSDGTYYADSVKGRFTISRDIAKNTVYLQKNSLKPEDTAVYYWGQGTQVTVSS	low polyreactivity
QVQLVESGGGLVQAGGSLRLSCAASGITFIYYAMGWYRQAPGKERELVAAISRSGGSTYYADSVKGRFTISRDNAKNTVYLQMNSLKPEDTAVYYCAADGTKFSGRVTGDYWGQGTQVTVSS	high polyreactivity
QVQLVESGGGLVQAGGSLRLSCAASGITFIYYAMGWYRQAPGKERELVAAITWRGGSTYYADSVKGRFTISRDNAKYTVYLQMNSLKPEDTAVYYCNKGGISGRDYWGQGTQVTVSS	high polyreactivity
QVQLVESGGGLVQAGGSLRLSCAASGITFIYYHMGWYRQAPGKERELVAAINWSGGRTYYADSVKGRFTISRDNAKNTVYVQMNSLIPEDTAVYYCAADSWRPVYLGYYWGQGTQVTVSS	high polyreactivity
QVQLVESGGGLVQAGGSLRLSCAASGITFKDYAMGWYRQATGKERELVAVISYSGGSTYYADSVKGRFTISRDNAKNTVYLQMNSLKPEDTAVYYCAARVGPEYDWGQGTQVTVSS	low polyreactivity
QVQLVESGGGLVQAGGSLRLSCAASGITFKGNAMGWYRQAPGKERELVAAIRWRAGRTYYADSVKGRFTISRDNAKNTVYLQMNSLKPEDTAVYYCAAVGRYAYRRGSFLAYKSNYDYWGQGTQVTVSS	high polyreactivity
QVQLVESGGGLVQAGGSLRLSCAASGITFKGYTMGWYRQAPGKERELVATISRGGRTYADSVKGRFTISRDNAKNTVYLQMNSLKPEDTAVYYCAADKYWAQNDYWGQGTQVTVSS	low polyreactivity
QVQLVESGGGLVQAGGSLRLSCAASGITFKTYAMGWYRQAPGKERELVATINRGSRTNYADSVKGRFTISRDNAKNTVYLQMNSLKPEDTAVYYCAAHYTTFIPSPDGDYLGQGTQVTVSS	low polyreactivity
QVQLVESGGGLVQAGGSLRLSCAASGITFKYYAMGWYRQAPGKERELVAAISRGGTTSYADSVKGRFTISRDNAKNTVYLQMNSLKPEETAVYYCAAKYWWYPYFTVDYDYWGQGTQVTVSS	high polyreactivity
QVQLVESGGGLVQAGGSLRLSCAASGITFKYYAMGWYRQAPGKERELVAAITRGGSTYYADSVKRRFTISRDNAKTTVYLQMNSLKPVDTAVYYCNKARTYELYWGQGTQVTVSS	high polyreactivity
QVQLVESGGGLVQAGGSLRLSCAASGITFKYYTMAWYRQAPGKERELVAAISRSGGSTYYADSVKGRFTISRDNAKNTVYLQMMSLKPEDTAVYYCAAERGAYRGVTFTYGYWGQGTQVTLSS	high polyreactivity
QVQLVESGGGLVQAGGSLRLSCAASGITFLHYAMGWYRQAPGKERELVARITYSGSSTYYADSVKGRFTISRDNAKNTVYLQMNSLKPEDTAVYYCNARASWGRWSRTGTPRYDYWGQGTQVTVSS	high polyreactivity
QVQLVESGGGLVQAGGSLRLSCAASGITFLHYAMGWYRQAPGQERELVAAIDYSGGSTYYADSVKGRFTISRDNAKNTVYLEMKSLKPEDTAVYYCNARVPRYNGGSTMEYWGQGTQVTVSS	high polyreactivity
QVQLVESGGGLVQAGGSLRLSCAASGITFLPYAMGWYRQAPGKERELVAAITRGGGSTYADSVKGRFTISRDNAKNSVYFQMISLKPEDTAVYYCAKLYGRGSWYEDYDYWGQGTQVTVSS	low polyreactivity
QVQLVESGGGLVQAGGSLRLSCAASGITFNLNDMGWYRQAPGKERELVAAITSGGNTSYADSVKGRFTISRDNAKNTVYLQMNSLKPEDTAVYYCAADLHTELYKMDYWGQGTQVTVSS	low polyreactivity
QVQLVESGGGLVQAGGSLRLSCAASGITFNPYTMGWYRQAPGKERELVADINRGGDTTYADSVKGRFTISRDNAKNTVYLQMNSLKPEDTAVYYCAKRLVQWMDYWGQGTQVTVSS	low polyreactivity
QVQLVESGGGLVQAGGSLRLSCAASGITFNTYTMVWYTQAPGKERELVAAISGSSGRTYYADSVKGRFTISRDNAKNTVYLQMNSLNPEDTAVYYCAAYAVESYKYDYWGHGTQVTVSS	high polyreactivity
QVQLVESGGGLVQAGGSLRLSCAASGITFNVLAMGWYRQAPGKEREFVAAISTRDGTTYADSLKGRFTISRDNAKNTVYLQMNSLKPEDTAVYYCAAAYYYDGQQGDFDYWGQGTQVTVSS	low polyreactivity
QVQLVESGGGLVQAGGSLRLSCAASGITFNVNAMGWYRQAPGKERELVARITTSGGSTSYADSVKGRFTISRDNAKNTVYLQMNSLKPEDTAVYYFAADRARYYSEYDYWGQGTQVTVSS	low polyreactivity
QVQLVESGGGLVQAGGSLRLSCAASGITFNYNAMGWYRQAPGKERELVARITWSGTRTYYADSVKGRYTISRDNAKNTVYLQMNSLKPEDTAVYYCNADPYARYYWGQGTQVTVSS	high polyreactivity
QVQLVESGGGLVQAGGSLRLSCAASGITFPDYAMGWYRQAPGKERELVAAISRGVNTYYADSVKGRFTISRDNAKNTVYLQMNSLKPEDTAVYYCNRRGSSGYDYWGQGSQVTVSS	low polyreactivity
QVQLVESGGGLVQAGGSLRLSCAASGITFPGNAMGWYRQAPGKERELVAGISDGDSTNYADSVKGRFTISRDNAKNTVYLQMNSLKPEDTAVYYCNAQGTTETSGGGFFRGMDYWGQGTQVTVSS	low polyreactivity
QVQLVESGGGLVQAGGSLRLSCAASGITFPGYAMGWYRQATGKERELVAVIRKSGTSTYYADSVKGRFTISRDTAKNTVYLQMNSLKPEDTAVYYCAAGGPSTLDDYWGQGTQVTVSS	low polyreactivity
QVQLVESGGGLVQAGGSLRLSCAASGITFPINAMGWSRQAPGKEREFVATISFSGASTYYADSVKGRFTISRDNAKNTVYLQMNSLKPEDTAVYYCAADLSLSTGGRAFPTYGYWGQGTQVTVSS	high polyreactivity

From the nanobody polyreactivity screen of Harvey et al. (2022)
